Positions count from the first letter of the chain named.
T1: DcR3 FL-Fc (R&D Systems, Inc.) (human, UniProt O95407 30-300)
T1 construct: Bought product made in insect cells; also called DcR3-Fc (R&D Systems, Inc.); DcR3 FL-Fc (IgG1)
T1 sequence: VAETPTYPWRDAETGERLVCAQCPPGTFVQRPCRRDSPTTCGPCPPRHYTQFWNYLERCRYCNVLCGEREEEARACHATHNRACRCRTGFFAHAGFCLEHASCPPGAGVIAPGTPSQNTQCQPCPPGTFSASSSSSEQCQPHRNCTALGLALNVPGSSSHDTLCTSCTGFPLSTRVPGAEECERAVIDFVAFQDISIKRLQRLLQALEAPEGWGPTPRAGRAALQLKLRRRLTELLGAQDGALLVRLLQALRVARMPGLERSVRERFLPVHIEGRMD

T2: soluble recombinant of human FasL (His6, Pro134-Leu281) (UniProt P48023 134-281)
T2 chain: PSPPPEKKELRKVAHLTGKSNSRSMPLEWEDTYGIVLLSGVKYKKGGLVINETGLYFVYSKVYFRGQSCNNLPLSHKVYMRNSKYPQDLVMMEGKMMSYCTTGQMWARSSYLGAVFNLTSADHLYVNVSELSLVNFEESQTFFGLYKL

T3: soluble recombinant of human LIGHT (His10, GS linker, Asp74-Val240)
T3 chain: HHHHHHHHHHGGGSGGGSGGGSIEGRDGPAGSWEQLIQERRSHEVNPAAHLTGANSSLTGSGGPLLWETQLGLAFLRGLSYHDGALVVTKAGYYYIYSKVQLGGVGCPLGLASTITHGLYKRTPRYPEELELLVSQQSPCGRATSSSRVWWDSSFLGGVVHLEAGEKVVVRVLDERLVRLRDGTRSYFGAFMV

T4: soluble recombinant of human TL1A (His6, GS linker, Leu72-Leu251) (UniProt O95150 72-251)
T4 chain: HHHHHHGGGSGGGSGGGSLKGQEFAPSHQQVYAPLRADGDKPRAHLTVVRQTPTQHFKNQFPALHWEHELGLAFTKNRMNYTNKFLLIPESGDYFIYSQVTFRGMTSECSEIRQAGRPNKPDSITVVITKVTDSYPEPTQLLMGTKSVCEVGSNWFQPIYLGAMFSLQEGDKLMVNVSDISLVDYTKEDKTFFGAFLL

B1: soluble recombinant of mouse FasL (His6, Pro132-Leu279) (ligand)
chain: HHHHHHPSTPSEKKEPRSVAHLTGNPHSRSIPLEWEDTYGTALISGVKYKKGGLVINETGLYFVYSKVYFRGQSCNNQPLNHKVYMRNSKYPEDLVLMEEKRLNYCTTGQIWAHSSYLGAVFNLTSADHLYVNISQLSLINFEESKTFFGLYKL
B2: soluble recombinant of mouse TL1A (His6, GS linker, Ile94-Leu270) (ligand)
chain: HHHHHHGGGSGGGSGGGSITEERSEPSPQQVYSPPRGKPRAHLTIKKQTPAPHLKNQLSALHWEHDLGMAFTKNGMKYINKSLVIPESGDYFIYSQITFRGTTSVCGDISRGRRPNKPDSITMVITKVADSYPEPARLLTGSKSVCEISNNWFQSLYLGATFSLEEGDRLMVNVSDISLVDYTKEDKTFFGAFLL
B3: soluble recombinant of human TL1A (His6, GS linker, Leu72-Leu251) (ligand)
chain: T4 chain
notes: also called His6-TL1A; hTL1A
B4: soluble recombinant of cynomolgus monkey TL1A (His6, GS linker, Leu72-Leu251) (ligand)
chain: T4 chain with F57L, I96V
notes: also called His6-cynoTL1A
B5: soluble recombinant of mouse LIGHT (His10, GS linker, Asp72-Val239) (ligand)
chain: HHHHHHHHHHGGGSGGGSGGGSIEGRDGGKGSWEKLIQDQRSHQANPAAHLTGANASLIGIGGPLLWETRLGLAFLRGLTYHDGALVTMEPGYYYVYSKVQLSGVGCPQGLANGLPITHGLYKRTSRYPKELELLVSRRSPCGRANSSRVWWDSSFLGGVVHLEAGEEVVVRVPGNRLVRPRDGTRSYFGAFMV
B6: soluble recombinant of human FasL (His6, Pro134-Leu281) (ligand)
chain: T2 chain
B7: soluble recombinant of cynomolgus monkey FasL (His6, Pro133-Leu280) (ligand)
chain: T2 chain with L10Q, S20P, N70T, R108H
notes: also called His6-cynoFasL
B8: soluble recombinant of human LIGHT (His10, GS linker, Asp74-Val240) (ligand)
chain: T3 chain
B9: soluble recombinant of cynomolgus monkey LIGHT (His10, GS linker, Asp74-Val240) (ligand)
chain: T3 chain with P29H, A30G, E44Q, V45N, S80D, V88A, T89N, S146N, A164V, K167E
B10: DcR3 FL-Fc (R&D Systems, Inc.) (Fc fusion)
chain: T1 sequence

biological target: T1, DcR3 FL-Fc (R&D Systems, Inc.); assay: SPR, binder captured
Procedure: Regarding each of the various wild-type DcR3 controls and the DcR3 variants shown in Table 9, the binding activities to DcR3 ligands (LIGHT, TL1A, FasL) were analyzed by the SPR method using BIAcore T-100 (GE Healthcare). As the buffer, HBS-EP+Buffer was used.
After 10,000 RU of anti-human antibodies were immobilized to Series S Sensor Chip CM5 using Human Antibody Capture Kit (GE Healthcare), various wild-type DcR3 controls and DcR3 variants were injected at the flow rate of 10 μL/min for 30 seconds and captured. Meanwhile, the buffer containing no protein was injected into reference flow cells. Thereafter, as an analyte, DcR3 ligands of a human, a cynomolgus monkey or a mouse diluted to 0.08 to 80 nmol/L were injected at 10 μL/min for 2 minutes to monitor the binding, and subsequently the buffer was injected for 3 minutes to monitor dissociation. Then, 3 mol/L magnesium chloride was injected at 20 μL/min for 1 minute to perform a regeneration reaction. […] As a result of measurement, except for mouse LIGHT for which a trimer could not be produced, it was confirmed that various wild-type DcR3 controls and DcR3 variants bind to each DcR3 ligand of a human, a cynomolgus monkey or a mouse.

Kd [nM] | koff [s⁻¹] | kon [M⁻¹ s⁻¹] | binding result | Binder
65 | 0.0097 | 150000 | – | B1
0.58 | 0.00049 | 840000 | – | B2
0.89 | 0.00035 | 390000 | – | B3
0.92 | 0.00035 | 380000 | – | B4
– | – | – | no binding (tested: 0.08 to 80 nmol/L) | B5
1.3 | 0.0004 | 310000 | – | B6
1.1 | 0.00033 | 300000 | – | B7
1.1 | 0.0004 | 380000 | – | B8
1.2 | 0.00038 | 310000 | – | B9

Biological target: T2, soluble recombinant of human FasL …
Assay: BIAcore SPR
Method in brief: (§1)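 Binding of each test molecule to soluble recombinant His-tagged human or cynomolgus monkey LIGHT, TL1A or FasL was analysed by surface plasmon resonance. Measurements used a BIAcore T-100 or T-200 instrument (GE Healthcare) in HBS-EP+ Buffer. The dissociation constant (Kd, nM) was derived from these measurements.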

Kd [nM] | Binder
0.93 | B10

Biological target: T3, soluble recombinant of human LIGHT …
Assay: BIAcore SPR
Method in brief: as §1

Kd [nM] | Binder
0.21 | B10

Biological target: T4, soluble recombinant of human TL1A …
Assay: BIAcore SPR
Method in brief: as §1

Kd [nM] | Binder
0.21 | B10

— US20220340642A1 (Kyowa Kirin, published 2022)
